Test results from patent US20200399394A1.

Experiments:
[1] = biological target: human CD39 (ectonucleoside triphosphate diphosphohydrolase 1) (UniProt P49961); assay: MSD equilibrium; Fab
[2] = biological target: human CD39 (ectonucleoside triphosphate diphosphohydrolase 1) (UniProt P49961); assay: ForteBio (BLI); IgG, monovalent

## SRF399-C
[1]
  Kd: 0.053 nM
[2]
  Kd: 2.94 nM
